Assay results published in article PMC9104065.

Biological target: Wisteria floribunda agglutinin (Wisteria floribunda)
Assay: automated chemiluminescent enzyme immunoassay (CLEIA, HISCL); IgA1 standards captured on WFA-conjugated magnetic beads, detected with alkaline-phosphatase-labelled anti-IgA1 mAb; 42 °C

## polymeric IgA1 standard cross linked with glutaraldehyde, with sialidase digestion
  CLEIA count, fold over nIgA1 not treated with sialidase: 700 fold
